# Results taken from the supplement of paper PMC7877785.
# ± gives the uncertainty stated by the source.
# Assay: self-splicing fitness, log relative to wild type (ln ratio); higher = more splicing; Tetrahymena group I intron in knt gene, E. coli kanamycin selection, DiMSum; sequences stand for … in CUCUCU…GGAGGGAAAAGUUAUCAGGCAUGCACCUGGUAGCUAGUCUUUAAACCAAUAGAUUGCAUCGGUUUAAAAGGCAAGACCGUCAAAUUGCGGGAAAGGGGUCAACAGCCGUUCAGUACCAAGUCUCAGGGGAAACUUUGAGAUGGCCUUGCAAAGGGUAUGGUAAUAAGCUGACGGACAUGGUCCUAACCACGCAGCCAAGUCCUAAGUCAACAGAUCUUCUGUUGAUAUGGAUGCAGUUCACAGACUAAAUGUCGGUCGGGGAAGAUGUAUUCUUCUCAUAAGAUAUAGUCGGACCUCUCCUUAAUGGGAGCUAGCGGAUGAAGUGAUGCAACACUGGAGCCGCUGGGAACUAAUUUGUAUGCGAAAGUAUAUUGAUUAGUUUUGGAGUACUCGUGGUCG
# Method in brief: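 A randomised library covering all eight P1ex-region intron nucleotides was built with the intron in the knt kanamycin-resistance gene on pET-22b(+) and held in E. coli BL21(DE3). Cells were grown overnight at 37°C or 30°C on LB agar, with or without 25 μg/mL kanamycin, plus 100 μg/mL carbenicillin, 50 μM IPTG and 0.2% rhamnose, and pooled colonies were amplicon-sequenced on an Illumina HiSeq 2500. DiMSum fitness is the error-weighted combination of wild-type-normalised replicate fold changes, kanamycin versus none.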
Sequence,self-splicing fitness (ln) (30 °C),self-splicing fitness (ln) (37 °C)
CAAUAGCAAUAUUACGGGAA,-3.21 ± 0.2,-1.94 ± 0.15
CGAUAGCAAUAUUACGAUCG,-2.55 ± 0.24,-2.39 ± 0.38
CGUCAGCAAUAUUACGCAGG,-3.85 ± 0.3,-1.69 ± 0.18
UAAUAGCAAUAUUACGUAAC,–,-2.03 ± 0.38
AAGAAGCAAUAUUACGAGGG,-3.5 ± 0.3,-2.32 ± 0.35
ACGGAGCAAUAUUACGAAUU,-3.52 ± 0.26,-2.5 ± 0.27
ACGGAGCAAUAUUACGCCGA,-1.94 ± 0.25,-1.49 ± 0.19
UACUAGCAAUAUUACGUUGA,-3.37 ± 0.17,-0.894 ± 0.12
UUCAAGCAAUAUUACGGGGU,-3.57 ± 0.21,-3.15 ± 0.25
AUUUAGCAAUAUUACGUAAG,-2.8 ± 0.18,0.197 ± 0.18
ACUAAGCAAUAUUACGACAC,-0.549 ± 0.1,-0.813 ± 0.13
AUGGAGCAAUAUUACGACCU,-0.472 ± 0.14,0.103 ± 0.18
GUCCAGCAAUAUUACGAAGU,-0.504 ± 0.074,0.0552 ± 0.11
CCUUAGCAAUAUUACGACUG,-2.26 ± 0.12,-0.308 ± 0.096
CUGUAGCAAUAUUACGCAUG,-1.06 ± 0.1,-0.55 ± 0.13
CAAGAGCAAUAUUACGGGGG,-3.3 ± 0.21,-2.62 ± 0.2
GUUAAGCAAUAUUACGCAAC,–,-0.0162 ± 0.34
CCAUAGCAAUAUUACGAUCC,-3.2 ± 0.35,-1.43 ± 0.41
CAUGAGCAAUAUUACGCCGC,-3.56 ± 0.2,-2.71 ± 0.22
GACAAGCAAUAUUACGCAAG,-2.27 ± 0.091,-1.75 ± 0.12
AAGAAGCAAUAUUACGAAUU,-1.53 ± 0.084,-0.992 ± 0.12
CAUUAGCAAUAUUACGCGAU,-3.83 ± 0.32,-1.52 ± 0.23
ACUAAGCAAUAUUACGAUGC,-1.53 ± 0.091,-0.792 ± 0.11
CACUAGCAAUAUUACGACUG,-0.3 ± 0.053,-0.0818 ± 0.071
GCUAAGCAAUAUUACGAAGC,-3.24 ± 0.25,-0.413 ± 0.23

Sequence,self-splicing fitness (ln) (30 °C),self-splicing fitness (ln) (37 °C)
CCGGAGCAAUAUUACGCUGA,-1.42 ± 0.29,-1.75 ± 0.45
ACCUAGCAAUAUUACGCAGG,-3.34 ± 0.23,-2.73 ± 0.26
CCUGAGCAAUAUUACGUCUA,-2.86 ± 0.31,-1.69 ± 0.3
GGACAGCAAUAUUACGAUAG,-3.66 ± 0.25,-2.13 ± 0.23
AGUCAGCAAUAUUACGUCCC,-1.52 ± 0.22,0.485 ± 0.27
AUCCAGCAAUAUUACGGGAG,-1.63 ± 0.066,-1.32 ± 0.074
UUGCAGCAAUAUUACGUUAU,-3.03 ± 0.22,-2.6 ± 0.21
AAGAAGCAAUAUUACGUUGA,-1.76 ± 0.12,-2.25 ± 0.14
CGUGAGCAAUAUUACGGCAA,-2.81 ± 0.2,-1.43 ± 0.19
GACGAGCAAUAUUACGUGCA,-3.06 ± 0.17,-0.901 ± 0.16
AGCAAGCAAUAUUACGUGAG,-2.58 ± 0.087,-1.44 ± 0.089
CCUGAGCAAUAUUACGCACC,–,-1.74 ± 0.4
UAAAAGCAAUAUUACGUGUA,-1.86 ± 0.055,-0.743 ± 0.056
UCCGAGCAAUAUUACGGAAC,-2.97 ± 0.33,–
UGAUAGCAAUAUUACGGCCU,-0.718 ± 0.097,-0.609 ± 0.15
UCGCAGCAAUAUUACGGGGU,-3.73 ± 0.17,-2.72 ± 0.18
UAAAAGCAAUAUUACGUGAU,-2.46 ± 0.11,-2.04 ± 0.16
AAGAAGCAAUAUUACGCCAG,-2.87 ± 0.26,-2.3 ± 0.27
UCUUAGCAAUAUUACGUAUU,-3.1 ± 0.28,-3.54 ± 0.39
CGUGAGCAAUAUUACGUAUG,-1.37 ± 0.11,-0.0658 ± 0.12
CUUCAGCAAUAUUACGGGAC,-2.8 ± 0.11,-0.836 ± 0.12
CCACAGCAAUAUUACGCUAU,-3.61 ± 0.26,-3.12 ± 0.25
GUGCAGCAAUAUUACGCUAU,-2.36 ± 0.15,-1.14 ± 0.12
GGGGAGCAAUAUUACGCGAA,-2.75 ± 0.4,0.457 ± 0.31
